According to PMC6995008 (Proceedings of the National Academy of Sciences of the …, 2020):

What was measured:
[1] = molecular target: RABV SAD-B19 large polymerase protein (L), 6xHis-tagged (rabies virus (RABV) SAD-B19, UniProt P16289 1-2127); test: negative-stain electron microscopy
[2] = molecular target: the molecule itself; test: negative-stain electron microscopy

RABV SAD-B19 large polymerase protein (L), 6xHis-tagged, sequence (P16289 whole entry): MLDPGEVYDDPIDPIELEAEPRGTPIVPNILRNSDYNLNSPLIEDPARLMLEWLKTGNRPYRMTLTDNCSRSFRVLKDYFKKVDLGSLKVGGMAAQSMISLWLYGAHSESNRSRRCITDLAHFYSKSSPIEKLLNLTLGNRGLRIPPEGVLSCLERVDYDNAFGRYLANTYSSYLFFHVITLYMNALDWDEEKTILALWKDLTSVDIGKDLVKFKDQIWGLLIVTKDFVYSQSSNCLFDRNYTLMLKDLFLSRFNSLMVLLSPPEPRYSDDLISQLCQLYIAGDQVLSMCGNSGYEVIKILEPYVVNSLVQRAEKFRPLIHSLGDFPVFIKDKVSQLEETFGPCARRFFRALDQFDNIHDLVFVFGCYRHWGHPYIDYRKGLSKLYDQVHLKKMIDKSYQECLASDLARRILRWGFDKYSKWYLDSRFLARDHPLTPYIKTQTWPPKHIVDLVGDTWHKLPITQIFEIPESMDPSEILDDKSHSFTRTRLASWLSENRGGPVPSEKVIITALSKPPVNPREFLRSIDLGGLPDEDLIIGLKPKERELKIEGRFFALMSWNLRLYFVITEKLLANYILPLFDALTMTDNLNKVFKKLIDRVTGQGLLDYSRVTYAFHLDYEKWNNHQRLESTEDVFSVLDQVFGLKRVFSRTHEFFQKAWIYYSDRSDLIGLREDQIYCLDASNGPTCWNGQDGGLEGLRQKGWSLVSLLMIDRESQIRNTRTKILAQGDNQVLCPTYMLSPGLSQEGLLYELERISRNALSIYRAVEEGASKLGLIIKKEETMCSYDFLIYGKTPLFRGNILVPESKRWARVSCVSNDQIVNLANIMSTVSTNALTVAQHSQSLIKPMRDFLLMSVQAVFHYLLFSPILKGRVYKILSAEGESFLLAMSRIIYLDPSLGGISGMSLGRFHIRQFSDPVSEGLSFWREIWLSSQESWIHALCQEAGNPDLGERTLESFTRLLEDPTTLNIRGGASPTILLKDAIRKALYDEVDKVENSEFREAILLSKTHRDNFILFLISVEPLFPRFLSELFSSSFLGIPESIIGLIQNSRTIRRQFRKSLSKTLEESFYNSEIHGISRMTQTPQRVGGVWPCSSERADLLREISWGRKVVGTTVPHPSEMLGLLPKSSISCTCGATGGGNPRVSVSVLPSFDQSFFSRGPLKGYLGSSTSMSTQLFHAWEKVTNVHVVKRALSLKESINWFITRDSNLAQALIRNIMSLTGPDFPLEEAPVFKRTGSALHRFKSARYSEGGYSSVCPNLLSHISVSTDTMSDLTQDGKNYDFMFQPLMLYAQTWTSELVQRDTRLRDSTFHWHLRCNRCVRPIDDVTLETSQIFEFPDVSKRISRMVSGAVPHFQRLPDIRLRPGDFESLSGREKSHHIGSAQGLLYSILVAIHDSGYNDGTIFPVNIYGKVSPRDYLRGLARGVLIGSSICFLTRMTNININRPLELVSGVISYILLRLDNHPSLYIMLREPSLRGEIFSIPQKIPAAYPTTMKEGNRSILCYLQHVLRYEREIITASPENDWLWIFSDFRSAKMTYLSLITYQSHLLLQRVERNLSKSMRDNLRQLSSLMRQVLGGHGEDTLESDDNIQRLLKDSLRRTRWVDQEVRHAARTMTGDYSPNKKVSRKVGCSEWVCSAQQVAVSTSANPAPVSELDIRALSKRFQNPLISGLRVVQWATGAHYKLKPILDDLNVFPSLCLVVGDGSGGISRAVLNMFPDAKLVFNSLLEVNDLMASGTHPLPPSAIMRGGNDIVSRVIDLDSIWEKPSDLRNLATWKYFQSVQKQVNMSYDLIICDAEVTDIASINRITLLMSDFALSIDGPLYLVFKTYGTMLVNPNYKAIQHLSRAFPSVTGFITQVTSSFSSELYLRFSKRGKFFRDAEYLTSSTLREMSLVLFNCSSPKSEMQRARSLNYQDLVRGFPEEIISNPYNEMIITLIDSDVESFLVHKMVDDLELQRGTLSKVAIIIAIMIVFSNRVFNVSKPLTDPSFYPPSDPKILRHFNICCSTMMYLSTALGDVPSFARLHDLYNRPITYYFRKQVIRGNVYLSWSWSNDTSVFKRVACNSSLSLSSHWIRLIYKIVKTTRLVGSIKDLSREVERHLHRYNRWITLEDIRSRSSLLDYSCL

B1: RABV SAD-B19 full-length P (PFL) with C-terminal StrepII tag (natural protein)
chain: MSKIFVNPSAIRAGLADLEMAEETVDLINRNIEDNQAHLQGEPIEVDNLPEDMGRLHLDDGKSPNHGEIAKVGEGKYREDFQMDEGEDPSFLFQSYLENVGVQIVRQMRSGERFLKIWSQTVEEIISYVAVNFPNPPGKSSEDKSTQTTGRELKKETTPTPSQRESQSSKARMAAQIASGPPALEWSATNEEDDLSVEAEIAHQIAESFSKKYKFPSRSSGILLYNFEQLKMNLDDIVKEAKNVPGVTRLAHDGSKLPLRCVLGWVALANSKKFQLLVESDKLSKIMQDDLNRYTSC
binding result [1]: binds
stoichiometry N [2]: 2
